Legend:
[1] = system: GFP-14-3-3β and its binding proteins; assay: GFP-14-3-3β co-IP with LC-MS/MS label-free quantification, untreated versus PP1c-treated; design: species or system human; settings: pairwise comparison PP1 vs untreated, student's t-test; 3 replicates each; LC-MS/MS label-free quantification
GFP-14-3-3β = GFP-14-3-3β co-IP with LC-MS/MS, untreated GFP-14-3-3β versus GFP control (14-3-3 interactome); assay type: binding, human; settings: pairwise comparison untreated GFP-14-3-3β vs GFP, student's t-test; 3 replicates each; LC-MS/MS label-free quantification

Molecule | Difference (log2), PP1 vs untreated [1] [log2] | Difference (log2), untreated vs GFP (GFP-14-3-3β) [log2]
NCKAP1 (protein, UniProt Q9Y2A7 2-1128, looked up) Nck-associated protein 1: SRSVLQPSQQKLAEKLTILNDRGVGMLTRLYNIKKACGDPKAKPSYLIDKNLESAVKFIVRKFPAVETRNNNQQLAQLQKEKSEILKNLALYYFTFVDVMEFKDHVCELLNTIDVCQVFFDITVNFDLTKNYLDLIITYTTLMILLSRIEERKAIIGLYNYAHEMTHGASDREYPRLGQMIVDYENPLKKMMEEFVPHSKSLSDALISLQMVYPRRNLSADQWRNAQLLSLISAPSTMLNPAQSDTMPCEYLSLDAMEKWIIFGFILCHGILNTDATALNLWKLALQSSSCLSLFRDEVFHIHKAAEDLFVNIRGYNKRINDIRECKEAAVSHAGSMHRERRKFLRSALKELATVLSDQPGLLGPKALFVFMALSFARDEIIWLLRHADNMPKKSADDFIDKHIAELIFYMEELRAHVRKYGPVMQRYYVQYLSGFDAVVLNELVQNLSVCPEDESIIMSSFVNTMTSLSVKQVEDGEVFDFRGMRLDWFRLQAYTSVSKASLGLADHRELGKMMNTIIFHTKMVDSLVEMLVETSDLSIFCFYSRAFEKMFQQCLELPSQSRYSIAFPLLCTHFMSCTHELCPEERHHIGDRSLSLCNMFLDEMAKQARNLITDICTEQCTLSDQLLPKHCAKTISQAVNKKSKKQTGKKGEPEREKPGVESMRKNRLVVTNLDKLHTALSELCFSINYVPNMVVWEHTFTPREYLTSHLEIRFTKSIVGMTMYNQATQEIAKPSELLTSVRAYMTVLQSIENYVQIDITRVFNNVLLQQTQHLDSHGEPTITSLYTNWYLETLLRQVSNGHIAYFPAMKAFVNLPTENELTFNAEEYSDISEMRSLSELLGPYGMKFLSESLMWHISSQVAELKKLVVENVDVLTQMRTSFDKPDQMAALFKRLSSVDSVLKRMTIIGVILSFRSLAQEALRDVLSYHIPFLVSSIEDFKDHIPRETDMKVAMNVYELSSAAGLPCEIDPALVVALSSQKSENISPEEEYKIACLLMVFVAVSLPTLASNVMSQYSPAIEGHCNNIHCLAKAINQIAAALFTIHKGSIEDRLKEFLALASSSLLKIGQETDKTTTRNRESVYLLLDMIVQESPFLTMDLLESCFPYVLLRNAYHAVYKQSVTSSA | -3.667 | 2.589
CCDC6 (protein, UniProt Q16204 2-474, looked up) Coiled-coil domain-containing …: ADSASESDTDGAGGNSSSSAAMQSSCSSTSGGGGGGGGGGGGGKSGGIVISPFRLEELTNRLASLQQENKVLKIELETYKLKCKALQEENRDLRKASVTIQARAEQEEEFISNTLFKKIQALQKEKETLAVNYEKEEEFLTNELSRKLMQLQHEKAELEQHLEQEQEFQVNKLMKKIKKLENDTISKQLTLEQLRREKIDLENTLEQEQEALVNRLWKRMDKLEAEKRILQEKLDQPVSAPPSPRDISMEIDSPENMMRHIRFLKNEVERLKKQLRAAQLQHSEKMAQYLEEERHMREENLRLQRKLQREMERREALCRQLSESESSLEMDDERYFNEMSAQGLRPRTVSSPIPYTPSPSSSRPISPGLSYASHTVGFTPPTSLTRAGMSYYNSPGLHVQHMGTSHGITRPSPRRSNSPDKFKRPTPPPSPNTQTPVQPPPPPPPPPMQPTVPSAATSQPTPSQHSAHPSSQP | -3.654 | 4.515

Continued, in another order:

Difference (log2), PP1 vs untreated [1] [log2] | Molecule | Difference (log2), untreated vs GFP (GFP-14-3-3β) [log2]
-3.585 | RAPGEF2 (protein, UniProt Q9Y4G8 1-1499, looked up) Rap guanine nucleotide …: MKPLAIPANHGVMGQQEKHSLPADFTKLHLTDSLHPQVTHVSSSHSGCSITSDSGSSSLSDIYQATESEAGDMDLSGLPETAVDSEDDDDEEDIERASDPLMSRDIVRDCLEKDPIDRTDDDIEQLLEFMHQLPAFANMTMSVRRELCAVMVFAVVERAGTIVLNDGEELDSWSVILNGSVEVTYPDGKAEILCMGNSFGVSPTMDKEYMKGVMRTKVDDCQFVCIAQQDYCRILNQVEKNMQKVEEEGEIVMVKEHRELDRTGTRKGHIVIKGTSERLTMHLVEEHSVVDPTFIEDFLLTYRTFLSSPMEVGKKLLEWFNDPSLRDKVTRVVLLWVNNHFNDFEGDPAMTRFLEEFENNLEREKMGGHLRLLNIACAAKAKRRLMTLTKPSREAPLPFILLGGSEKGFGIFVDSVDSGSKATEAGLKRGDQILEVNGQNFENIQLSKAMEILRNNTHLSITVKTNLFVFKELLTRLSEEKRNGAPHLPKIGDIKKASRYSIPDLAVDVEQVIGLEKVNKKSKANTVGGRNKLKKILDKTRISILPQKPYNDIGIGQSQDDSIVGLRQTKHIPTALPVSGTLSSSNPDLLQSHHRILDFSATPDLPDQVLRVFKADQQSRYIMISKDTTAKEVVIQAIREFAVTATPDQYSLCEVSVTPEGVIKQRRLPDQLSKLADRIQLSGRYYLKNNMETETLCSDEDAQELLRESQISLLQLSTVEVATQLSMRNFELFRNIEPTEYIDDLFKLRSKTSCANLKRFEEVINQETFWVASEILRETNQLKRMKIIKHFIKIALHCRECKNFNSMFAIISGLNLAPVARLRTTWEKLPNKYEKLFQDLQDLFDPSRNMAKYRNVLNSQNLQPPIIPLFPVIKKDLTFLHEGNDSKVDGLVNFEKLRMIAKEIRHVGRMASVNMDPALMFRTRKKKWRSLGSLSQGSTNATVLDVAQTGGHKKRVRRSSFLNAKKLYEDAQMARKVKQYLSNLELEMDEESLQTLSLQCEPATNTLPKNPGDKKPVKSETSPVAPRAGSQQKAQSLPQPQQQPPPAHKINQGLQVPAVSLYPSRKKVPVKDLPPFGINSPQALKKILSLSEEGSLERHKKQAEDTISNASSQLSSPPTSPQSSPRKGYTLAPSGTVDNFSDSGHSEISSRSSIVSNSSFDSVPVSLHDERRQRHSVSIVETNLGMGRMERRTMIEPDQYSLGSYAPMSEGRGLYATATVISSPSTEELSQDQGDRASLDAADSGRGSWTSCSSGSHDNIQTIQHQRSWETLPFGHTHFDYSGDPAGLWASSSHMDQIMFSDHSTKYNRQNQSRESLEQAQSRASWASSTGYWGEDSEGDTGTIKRRGGKDVSIEAESSSLTSVTTEETKPVPMPAHIAVASSTTKGLIARKEGRYREPPPTPPGYIGIPITDFPEGHSHPARKPPDYNVALQRSRMVARSSDTAGPSSVQQPHGHPTSSRPVNKPQWHKPNESDPRLAPYQSQGFSTEEDEDEQVSAV | 2.788
-3.391 | ZFP36L2 (protein, UniProt P47974 1-494, looked up) mRNA decay activator protein …: MSTTLLSAFYDVDFLCKTEKSLANLNLNNMLDKKAVGTPVAAAPSSGFAPGFLRRHSASNLHALAHPAPSPGSCSPKFPGAANGSSCGSAAAGGPTSYGTLKEPSGGGGTALLNKENKFRDRSFSENGDRSQHLLHLQQQQKGGGGSQINSTRYKTELCRPFEESGTCKYGEKCQFAHGFHELRSLTRHPKYKTELCRTFHTIGFCPYGPRCHFIHNADERRPAPSGGASGDLRAFGTRDALHLGFPREPRPKLHHSLSFSGFPSGHHQPPGGLESPLLLDSPTSRTPPPPSCSSASSCSSSASSCSSASAASTPSGAPTCCASAAAAAAAALLYGTGGAEDLLAPGAPCAACSSASCANNAFAFGPELSSLITPLAIQTHNFAAVAAAAYYRSQQQQQQQGLAPPAQPPAPPSATLPAGAAAPPSPPFSFQLPRRLSDSPVFDAPPSPPDSLSDRDSYLSGSLSSGSLSGSESPSLDPGRRLPIFSRLSISDD | 3.556
-3.665 | IRS2 (protein, UniProt Q9Y4H2 1-1338, looked up) Insulin receptor substrate 2: MASPPRHGPPGPASGDGPNLNNNNNNNNHSVRKCGYLRKQKHGHKRFFVLRGPGAGGDEATAGGGSAPQPPRLEYYESEKKWRSKAGAPKRVIALDCCLNINKRADAKHKYLIALYTKDEYFAVAAENEQEQEGWYRALTDLVSEGRAAAGDAPPAAAPAASCSASLPGALGGSAGAAGAEDSYGLVAPATAAYREVWQVNLKPKGLGQSKNLTGVYRLCLSARTIGFVKLNCEQPSVTLQLMNIRRCGHSDSFFFIEVGRSAVTGPGELWMQADDSVVAQNIHETILEAMKALKELFEFRPRSKSQSSGSSATHPISVPGARRHHHLVNLPPSQTGLVRRSRTDSLAATPPAAKCSSCRVRTASEGDGGAAAGAAAAGARPVSVAGSPLSPGPVRAPLSRSHTLSGGCGGRGSKVALLPAGGALQHSRSMSMPVAHSPPAATSPGSLSSSSGHGSGSYPPPPGPHPPLPHPLHHGPGQRPSSGSASASGSPSDPGFMSLDEYGSSPGDLRAFCSHRSNTPESIAETPPARDGGGGGEFYGYMTMDRPLSHCGRSYRRVSGDAAQDLDRGLRKRTYSLTTPARQRPVPQPSSASLDEYTLMRATFSGSAGRLCPSCPASSPKVAYHPYPEDYGDIEIGSHRSSSSNLGADDGYMPMTPGAALAGSGSGSCRSDDYMPMSPASVSAPKQILQPRAAAAAAAAVPSAGPAGPAPTSAAGRTFPASGGGYKASSPAESSPEDSGYMRMWCGSKLSMEHADGKLLPNGDYLNVSPSDAVTTGTPPDFFSAALHPGGEPLRGVPGCCYSSLPRSYKAPYTCGGDSDQYVLMSSPVGRILEEERLEPQATPGPSQAASAFGAGPTQPPHPVVPSPVRPSGGRPEGFLGQRGRAVRPTRLSLEGLPSLPSMHEYPLPPEPKSPGEYINIDFGEPGARLSPPAPPLLASAASSSSLLSASSPASSLGSGTPGTSSDSRQRSPLSDYMNLDFSSPKSPKPGAPSGHPVGSLDGLLSPEASSPYPPLPPRPSASPSSSLQPPPPPPAPGELYRLPPASAVATAQGPGAASSLSSDTGDNGDYTEMAFGVAATPPQPIAAPPKPEAARVASPTSGVKRLSLMEQVSGVEAFLQASQPPDPHRGAKVIRADPQGGRRRHSSETFSSTTTVTPVSPSFAHNPKRHNSASVENVSLRKSSEGGVGVGPGGGDEPPTSPRQLQPAPPLAPQGRPWTPGQPGGLVGCPGSGGSPMRRETSAGFQNGLNYIAIDVREEPGLPPQPQPPPPPLPQPGDKSSWGRTRSLGGLISAVGVGSTGGGCGGPGPGALPPANTYASIDFLSHHLKEATIVKE | 7.914
